In the assay the target is T1, GST-tagged A. thaliana Rpn10 (AtRpn10) vWA domain (Arabidopsis thaliana, UniProt P55034 2-193).
T1 construct: also called GST-AtRpn10; GST-Rpn10vWA
T1 sequence: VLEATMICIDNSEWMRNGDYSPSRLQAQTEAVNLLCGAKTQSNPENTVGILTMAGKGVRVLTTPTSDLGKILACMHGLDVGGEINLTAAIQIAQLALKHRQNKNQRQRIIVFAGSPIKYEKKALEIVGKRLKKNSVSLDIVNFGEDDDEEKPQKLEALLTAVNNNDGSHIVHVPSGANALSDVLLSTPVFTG
The assay can be described thus: SPR. Conditions: both partners purified.

By Kd is commonly meant the constant that tells how readily two partners part at equilibrium. A low value points to higher affinity.

B1: onion yellows phytoplasma (OY-M strain) SAP05 (OY_SAP05) (natural protein)
chain: APHEERVGDMRIVNITFSDINSIKNFQPFSQYFDFTLTGPRYNGNIAQFAMIWKIKNPPHNLLGVFFDNNTRDDEDDKYTLEELKQMGNGAKNMYIFWQYEQK
notes: source: E. coli BL21(DE3), purified (Ni-NTA, Superdex 75)
Consider B1, for which the Kd worked out at 398 ± 39 nM.

B2: aster yellows witches'-broom phytoplasma SAP05 (AYWB_SAP05), mature, 33-135 (natural protein)
chain: APNEEFVGDMRIVNVNLSNIDILKKHETFKKYFDFTLTGPRYNGNIAEFAMIWKIKNPPLNLLGVFFDDGTRDDEDDKYILEELKQIGNGAKNMYIFWQYEQK
notes: as for B1
In turn, B2 came in with a Kd of 400 ± 39 nM.

(Values after publication doi:10.1101/2023.08.24.554544 (bioRxiv, 2023).)
